Test system: FUS-Gal4
Assay: single-molecule (DNA curtains, koff/kon)
Conditions: condensate-DNA interaction; protein label and DNA substrate inferred; 40 mM Tris-HCl pH 7.5, 150 mM KCl, 2 mM MgCl2, 1 mM DTT, 0.2 mg/ml BSA; EMSA 30 min at room temperature

Substance Lambda DNA + 7x Gal4 sites has a Kd of 0.8 nM.

— PMC7935978
